The values below come from a protein production outcome set (Wang et al. 2014).

The nature of this data set: label from the status in PepcDB records.

As to “MPRRDLLDLLALAAVWGGSFLFMRVAVPEFGPAALMELRVGLAALFLLPLALWRGKPALIARHWKAILVVGTLNSALPFLLYAYAAQSLGAGFLSVANAVTPVWGAVIGWLWLGDRLPRMRALGLLISLSGIIVLVWDKLDFHDGGTGPAVLAAISAPVFYGMAANWTKRYLGHVDALTNATGSMVAASLVLAPLAIIHWPEQAVSFEAWRATVLLAIVCTGAAYIVFFRLIARVGPTAAVSVTFLVPVFGVLWGVWFLDEAVTPRILAGAGVILVGTALALGLVGARRVAAAD”, the protein production result was “failed”.
For “MPRRRVETRRVDHDPGKRTLLLSPVLPLPTMRTCALALLTILLGAPAHGQSTDGPWTIDHVLTQRSLTDVDIGPDGNRVLWVKETPDPEADETTSDVYLTYRDDPHGDSTATLQLTRTGDNRAPRWSPDGEHIAFLSSREQEDAAESSGTQIWRLDPRGGAPEVITSVEHGVQGARWLDDDRLLFTAREQNTRYEQHLEQTEDDADVIEDTTLFRPVRLFTVHVGTGEVTRVTNNDHQIGEFAPSPNGSRVVYSLSDSPITADARNQPHQFLLNLNTGATTEIFDEQYVDPSNFQWTADGAGFYATDSYSSDPEHEGAGITKLYHYDLAARDYQEVPLEWGDKGVGYGGYTVVDGGLHVQLADGPTFEPRFYRKTSDGWAPAEVADERLEHASAFTAGPDGETVVFSHSTADTPPSYRVGTYREGALQRDETLTTLNENLDDLPIPRAEVVRWTGANGETVNGILHYPLDYDPDRAYPMMTVLHGGPSGVDLDAWSLGWTVYAPLLAQRDAFVFRPNYHGSGHHGLDFVESIKGKYYELEVPDIVSGIDSLAAAGVVDKDSLGVMGWSNGAILTTQLTIEHPELFQVAAPGAGDVNWTSDYGNCAFGVRFDRSYFKGAPWTYTEHYIEKSPLFEMPKVQTPTLIHHGTEDRAVPYEQGWEYYRALQQIGNAPVRFLSYPGEPHGLRQLSHQRRKVAEDLKWIDTYLFGETSMQERVSERLLADDAPLSLLETAEAPARTDGHYGVRANGTLVPETVTLGDTLTVGRFEVTRAQFRAYDADFEVPSGTAEYPAHGLAADRAQAYVDWLSEQTGRDYRLPTAAELAALKAARAGPSENTPAYWAGFTPTPDEYRRLRARLAQHPTEALLMPVGSRPAGHGPNGGGPLIYDVDGNVAEWARTADGIEAQNASALTLKDPKAETAPTPPRRVTGLRVVLDR”, the protein production result is “failed”.
“MPSDGLPKNLEPLAAGDPATIGPYVLVGRLGSGGMGTVYLGRAPEKGTHVAIKVIRPELAFDEATRARFRDEMENARKVASFCTAKVLDHGTFQNRPYMVTEYIAGTALAEHIAEHGPLDSGTLHGFALGVAAALAAIHKAGLVHRDLKPANVLLSLSGPRVIDFGIARALNTSTSHTQTGIVMGSPGWMAPEQLLEEKVTTKADIFAWGCLVAFAGNGRHPFGNGDAMTLGKRMLFAEPDIGNLDPPLDRLVARALAKDPDQRPTAQELLLELAGGTDSNDTNDVVSHALHQSWRPNFPPMPPGYPPPSPQAHSGMPGPQAQAQAPGQTTIAPQPYAHPQQGGPGPMPPQAAGPQGGPQGGPQSPPMPQRPGPQASHHTGQIPVVPPTTGRQPPRSPAAQGSSGGPQARPYVPPNTLPPHRPLRPDSSRSRLLIVFAVLGAVLLAVVLVFGLVFFQDWFSSTSDTNPPGQGQEQQSSAPKEDPDDESDKSDTQAADPQAGESLRFDLLDWYCGNQVLDRPLIVNGGEYCVAEIEAHNSANYPVKFRHDLQILAHASGEQTKADAPLHGEGADPLWAGPIQPGDTVRGYLVFIVHSELTPEVLILRSTVDSPGQQIEIPSGQPA”: the protein production result is given as “failed”.
In the case of “MPSDNTYIRFRQQQRDPLHVNSPVSAGNISGVQGSGSRHPPSPPTPTTQPSVNHSDAQAERLNNLTLDELLDSPGRAGLTRLDPKRPLATLWFDDDSTVAATVRSIFERDFKEPHANWSQTSKATIDRWYETFAQVYNWDRSINKRVRVEFEAKLNSRMSDQVSRWKGNWKEKGDEAKPKWIDPEGIYKHCSGQTSYKARARKRCEKTGETTPDFLELLDETHRKADGTFIDGKSEEIYKKVTSRIEEEESHMCSGDNPESTGSCGLSVHAKNKIFVEVAPRKKGRIYGVGSLQFEAFSAHSGSTLPSDDPVILSQKLAAAEACIQSQAEKINSFDILFDYLADKDPALAAILRRGSSTQTGPASANEAPVATAPEQQVANEETAAATLANLATGSSPSSIF” it was “failed”; in that of “MPSFDIVSEITLHEVRNAVENANRVLSTRYDFRGVEAVIELNEKNETIKITTESDFQLEQLIEILIGSCIKRGIEHSSLDIPAESEHHGKLYSKEIKLKQGIETEMAKKITKLVKDSKIKVQTQIQGEQVRVTGKSRDDLQAVIQLVKSAELGQPFQFNNFRD”, “not failed”.
As for “MPSGQALRISRTCRLNAHPRFDRLWRSPTPIQVSAMIVAFRLFLACLGLFLCLSSPLAAQVSLYSGIAGTSDESAGGDLAEAIRAASEAGASVIVIDSAGRVAAAGTEAGAVETARVDPMGEASQLMKAQEKVSDFIGALRSRLEALPYSIFEVQYILRQTSPDGRIATYAEVLAINLVLLLIGRWMSIEIYGKRIARKHVVSRIREAPRGYREKMPFLVFRFVMGVGATLFAMVFAFIIGFLIFGPMQDLSIQFTVTAIFTAYFLARTASDLWRMVLSPYLSQYRLPPFSDRDAKRLYLWASLLATYDISSELFSTWVADFGLNYNVYAMVYGVLTGVGALGNVLMVLFNGRAISNAIRGGRTKDEVSWILRLVSVAWAPVVLFYMVFGWLQLAFDLVLERPVHIPLMAGTYGIFMSVVVAYGAMNYLLERYFDRTRQVKELNAALAEAEAAEDLSMTGVSAQRHHIATFEDLARRVAGILAFVVGTYALVLIWNPEMDWTGDLPIDRALDVMVIIFLGYIVFHFFRIWIDSKIAEETVDVPEGELGDEGGGTSASRLATLLPLFRGAILAVVVVSIVLIALMEVGINVSPLFAGAGVVGLAVGFGSQTLVRDIFSGAFFLVDDAFRKGEYIDIGDVKGTVEKISVRSFQLRHHLGALHTIPFGEIKVLTNFSRDWVIMKLPLRVTYDTDVEKVRKLIKNLGQELLSDPVIGDNFIQPLKSQGVIEMQDSAMIIRVKFMTKPGDQWLVRKRVYQDIRELFAREGIKFAHREVTVRLADGQEAAKMTPQQREAVTGAVQAAIDEDVLDDMMDDDR”, the entry is “failed”; as for “MPSIIEAKHQGQKQSKNELKQARQSVIEQIQDLVPSSTVTHEYDFLFSGFALELPAHQIPSILGIDGVHAVYPNIEYEVETDFDEVVIEKDAYSPEMLDSAPFIGANDAWEAGYTGEGITVAILDTGVDYTHPDLVHAFGDYKGWDFIDNNDDPQETPPGDPRGIETTHGTHVAGTVAANGLIKGVAPDANLLAYRVLGPGGRGSTAGVIAGIERAVQDGADIMNLSLGNTLNDPDFATSIALDWAMAEGVVAVTSNGNSGPNNWTVGSPGTSRDAISVGATRLPYNKYKASVFTSDGIDYPSADIMGFPSDEELLELDGETYEYAFAGLGKPGDFEGVDVEGKIALIVRGEIPFVEKAENAKAAGAVGAIIYNNVAGVQPTVPGLAIPTIMLSNEDGLKMRNELENGQNTVTFSIEFDKLVGETVADFSSRGPVMHTWMIKPDVSAPGVAIVSTIPTHQPDDPYGYGSRQGTSMASPHVAGAAALLLEAHPNWGVDHVKAALMNTAENLVDENGNRYPHNTQGAGSIRIVDAIESETLVTPGSHSFGTFTKERGKQVERQHFTIHNLSNKRKTYQFDVQFAGNPDGIKVKTSKNLRVQPGKTQKINFNVQVDARKLDPGYYEGTIIVSDGSQTVEVPTILFVSEPDYPRVTTFDLDIDENGVLFGSAYLPNGAEEFGLWIYTRDTLEYVTSAAVVQNIGKGYHDVTWDTTELAPGRYYVFAYAERLGKTDFVLGDEIVVKLEHHHHHH”, “failed”; as for “MPSLGCCYIMGGTVLWAIAAELFFESMNLITWLADFSRGHCVGICAALVPSILLWTTICAVLIALGQPRWSVNTAYVATLTVCGVMVLHVASWFSIGVITPVTFILLGLSLSCGSLATLFWRYSSQWQKFCHSGLRETIKAKWPQTLKI”, “failed”.
As for “MPSLTTLRSRELGPETFIPYVRHVDESTIALDSRALMVMIALEGVSFETADILDLNALHRDLNTLYRNIADERLALWTHLIRRRDNSYPEGTFATPFSAALNDKYRERMVGEDLFRNDLYLSILWSPARDPADKAAKLLSRLRRARRVGTELDEGALKHLRDKVIDVTAALRRFEPRVLTLYEHDGLMFSEPSEVLHQLVGGRREPIPLTEGHIASAIYSDRVIVGRETIEIRHEADSRYAGMLSFKEYPARTRTGMLDAVLTSPFELILAQSFSFVSKADARMIMGRKQNQMVSSGDKAASQIEELDGAMDDLESNRFVFGEHHLTLSVFAPSVKELTDNLAKARASMTSGGAVVAREDLGLEAAWWAQLPGNFRYRARSGAITSRNFAALSPFHSYPLGQKDGNEWGPAVALLKTASGSPYYFNFHYGDLGNTFVCGPSGAGKTVLLNFMLSQLEKHDPHVVFFDKDRGADLYVRAAGGTYLPLKNGIPTGCTPLKALELTPENKVFLTRWVGKLVGSATRELSVTELRDISSAIDGLADLPVERRTIGALRTFLDNTNPEGIAARLRRWERGGPLGWVFDNVIEDIGFGEFGGGKLVGYDMTDFLDNEEIRAPLMAYLFHRVEQLIDGRRIIIVIDEFWKALQDEGFRDLAQNKLKTIRKQNGLMLFATQSPRDAIVSPIAHTIIEQCPTQIFLPNSRGNHGDYVDGFKLTEREFELVARELSIESRRFVLKQGHNSVVAELDLKGLDDELAILSGRTANVELADAIRAEVGSNAKDWLPVFQQRRSATLEHHHHHH”, the entry is “failed”; as for “MPSPTVTSPQVAVNDIGSSEDFLAAIDKTIKYFNDGDIVEGTIVKVDRDEVLLDIGYKTEGVIPARELSIKHDVDPNEVVSVGDEVEALVLTKEDKEGRLILSKKRAQYERAWGTIEALKEKDEAVKGTVIEVVKGGLILDIGLRGFLPASLVEMRRVRDLQPYIGKEIEAKIIELDKNRNNVVLSRRAWLEQTQSEVRSEFLNNLQKGTIRKGVVSSIVNFGAFVDLGGVDGLVHVSELSWKHIDHPSEVVQVGDEVTVEVLDVDMDRERVSLSLKATQEDPWRHFARTHAIGQIVPGKVTKLVPFGAFVRVEEGIEGLVHISELAERHVEVPDQVVAVGDDAMVKVIDIDLERRRISLSLKQANEDYTEEFDPAKYGMADSYDEQGNYIFPEGFDAETNEWLEGFEKQRAEWEARYAEAERRHKMHTAQMEKFAAAETAGRGADDQSSASSAPSEKTAGGSLASDAQLAALREKLAGSALEHHHHHH”, “failed”; as for “MPSQKPIIVSKTSAAASSSSDRLRIIPLGGLHEIGKNTCIYEVGDEILLVDAGLAFPTDGMHGVNVVLPDMTYLRENQHRIKAMVVTHGHEDHIGGIPFHLRQLDIPIIYGPRLAMALLAGKLEEAGVVGRANVKTVQPREVVRIGQNFLVEFIRNTHSIADSFTLAIRTPLGVVIHTGDFKFDHTPVDGETFDIQRLADYGEQGVLCLVSDSTNAELPGFTPSERSVFPNLDRAFSQAQGRLIVTTFASSVHRVNMILELAKKHGRKVTVLGRSMLNVIAHARNLGYIHCSDDLFLPPKELRDHPDRDVLILTTGSQGEPLAALTRIARQEHPQVKIRQGDTVIFSANPIPGNTISVVNTIDQLMMQGAHVVYGKGAGIHVSGHGCQEDQKLMIALTKPKFFVPVHGEHRMLVQHCKTAQSMGVPPEHMIVIDNGDTVELTPESIGLGDRVTAGIELVDTSRTGLVDGKALKERQQLAEDGLVSLSALVNSQGQLVDAPTVHLRGVVTSADPRRVSVWAQKEVEMALDNRWADYCRRLPSGELDVDWVGLHAEVEVGMQRRLKRELQCVPMILCTLQSVPSVAAQPAEEDNRMRRRRSSAPIKVGAKL”, “failed”.
Regarding “MPSRKFADGEVVRGRWPGSSLYYEVEILSHDSTSQLYTVKYKDGTELELKENDIK”, the protein production result was “not failed”.
As for “MPSRQLQILIRKTLPLVPDHVLIIGESGIAFSKATNLLGQEFEHILFDGRNGIHLEALAIAAGTLKMGGTLCLVLSDWENLSQQPDQDSLRWNGNQSAIATPNFIYHFKQCIERYHFPILREESAVEFPTVFYSNEHHKNATLAQQQIIENILQAEQDIYFLTAKRGRGKSALLGMLANQIQAPVYLTAPNKSAVHSVIEFSEGDIEFIAPDELALTLQTEPEFSQSAWLLVDEAAMIPLPLLQEYSRYFQHIVFSTTIHSYEGTGRGFELKFKRKIHRTFQHFELKQPLRWQENDPLEHFIDDLLLLNAEDDFQHFDYSNITYNIEENAKNLSFPCLRGKVPEGPKGGFRYS”, the entry is “failed”.
